Data set [1] concerns CC(=O)N[C@H]1[C@H](Oc2ccc3c(C)cc(=O)oc3c2)O[C@H](CO)[C@@H](O[C@@H]2O[C@H](CO)[C@H](O)[C@H](O)[C@H]2O)[C@@H]1O[C@@H]1O[C@@H](C)[C@@H](O)[C@@H](O)[C@@H]1O. The data set is described as follows: purified protein, by the assay type. The following applies: other: apparent; acceptor; WT; 37.0 °C.
In data set [2] the test system is CC(=O)N[C@H]1[C@H]([C@H](O)[C@H](O)CO)O[C@](OP(=O)(O)OC[C@H]2O[C@@H](n3ccc(N)nc3=O)[C@H](O)[C@@H]2O)(C(=O)O)C[C@@H]1O. The data set is described as follows: purified protein, by the assay type. The following applies: other: apparent, WT.
In data set [3] the test system is CC(=O)N[C@H]1[C@H]([C@H](O)[C@H](O)CO)O[C@@](O[C@H]2[C@@H](O)[C@@H](CO)O[C@@H](O[C@H]3[C@H](O)[C@@H](O)[C@H](Oc4ccc5c(C)cc(=O)oc5c4)O[C@@H]3CO)[C@@H]2O)(C(=O)O)C[C@@H]1O. The data set is described as follows: α2-3-sialidase activity, Neu5Acα2-3LacβMU as substrate. Type of data set: biochemical, Pasteurella multocida. The following applies: other: apparent, MES pH 5.5, 37° C. As to the method:
(§1) Site-directed mutagenesis, expression and purification of PmST1 mutants. Site-directed mutagenesis was performed using the QuikChange multi-site-directed mutagenesis kit from Stratagene according to the manufacturer's protocol. The primers used were 5′-[…]-3′ (SEQ ID NO:35) for M144D; 5′-[…]a[…] -3′ (SEQ ID NO:36) for M144H; 5′-[…]-3′ (SEQ ID NO:37) for A35D; and 5′-[…]-3′ (SEQ ID NO:38) for A35H. The expression and purification of the mutants were performed as previously described for the WT PmST1 .
Kinetics of the α2-3-sialidase activity of PmST1 mutants. The reactions were performed in duplicate in a total volume of 10 μL at 37° C. for 60 min (M144D) or 15 min (M144H) in MES buffer (100 mM, pH 5.5) containing Neu5Acα2-3LacβMU (0.4, 1, 2, 4, 10, 20, 40 and 60 mM) and an enzyme (M144H, 1.36 mg mL^−1 or M144D, 1.05 mg mL^−1). Sample treatment after the reaction and analysis were carried out by HPLC similar to that described above for the α2-3-sialyltransferase assays.

The test system of data set [4] is CC(=O)N[C@H]1[C@H]([C@H](O)[C@H](O)CO)O[C@](OP(=O)(O)OC[C@H]2O[C@@H](n3ccc(N)nc3=O)[C@H](O)[C@@H]2O)(C(=O)O)C[C@@H]1O. Nature of the data set: α2-3-sialyltransferase activity, LacβMU as acceptor. Type of data set: biochemical, Pasteurella multocida. The note with it: other: apparent, donor, LacβMU 1 mM, Tris-HCl pH 8.5, 37° C. As to the method:
as §1
(§2) Kinetics of the α2-3-sialyltransferase activity of PmST1 mutants by HPLC analysis. With LacβMU as the acceptor substrate, the reactions were performed in duplicate at 37° C. for 10 min (M144D) or 4 min (M144H) in a reaction mixture (10 μL) containing Tris-HCl (100 mM, pH 8.5), an enzyme (5 μg mL^−1), and different concentrations (0.2, 0.5, 1.0, 2.0, and 5.0 mM) of LacβMU with a fixed concentration (1 mM) of CMP-Neu5Ac or different concentrations (0.2, 0.5, 1.0, 2.0, 5.0, and 10.0 mM) of CMP-Neu5Ac with a fixed concentration (1 mM) of LacβMU. With Le^xβMU as the acceptor substrate, the reactions were carried out in duplicate at 37° C. for 9 min (M144D) or 10 min (M144H) in a reaction mixture (10 μL) containing CAPSO (100 mM, pH 9.5), an enzyme (M144D, 39 μg mL^−1 or M144H, 5 μg mL^−), and various concentrations of Le^xβMU (1.0, 5.0, 10.0, 15.0, 25.0, and 35.0 mM) with a fixed concentration (1 mM) of CMP-Neu5Ac or various concentrations (0.2, 0.5, 1.0, 2.0, 5.0, 10.0, 20.0, and 40.0 mM) of CMP-Neu5Ac with a fixed concentration (1 mM) of Le^xβMU. Reactions were stopped by adding 10 μL of pre-chilled ethanol. The mixtures were incubated on ice for 30 min and centrifuged at 13,000 rpm for 5 min. The supernatants were diluted with 25% acetonitrile and kept on ice until aliquots of 8 μL were injected and analyzed by the Shimadzu LC-6AD system equipped with a membrane on-line degasser, a temperature control unit, and a fluorescence detector (Shimadzu RF-10AXL). A reverse-phase Premier C18 column (250×4.6 mm i.d., 5 μm particle size, Shimadzu) protected with a C18 guard column cartridge was used. The mobile phase was 25% acetonitrile. The fluorophore (MU)-labeled compounds were detected by excitation at 325 nm and emission at 372 nm. The apparent kinetic parameters were obtained by fitting the experimental data (the average values of duplicate assay results) into the Michaelis-Menten equation using Grafit 5.0.

Data set [5] concerns Cc1cc(=O)oc2cc(O[C@@H]3O[C@H](CO)[C@@H](O[C@@H]4O[C@H](CO)[C@H](O)[C@H](O)[C@H]4O)[C@H](O)[C@H]3O)ccc12. The data set is described as above. Type of data set: biochemical, Pasteurella multocida. The following applies: other: apparent, acceptor, CMP-Neu5Ac 1 mM, Tris-HCl pH 8.5, 37° C. As to the method:
as §1, §2

The subject of data set [6] is CC(=O)N[C@H]1[C@H](Oc2ccc3c(C)cc(=O)oc3c2)O[C@H](CO)[C@@H](O[C@@H]2O[C@H](CO)[C@H](O)[C@H](O)[C@H]2O)[C@@H]1O[C@@H]1O[C@@H](C)[C@@H](O)[C@@H](O)[C@@H]1O. Nature of the data set: α2-3-sialyltransferase activity, Le^xβMU as acceptor. Format: biochemical, Pasteurella multocida. The following applies: other: apparent, acceptor, CMP-Neu5Ac 1 mM, CAPSO pH 9.5, 37° C. As to the method: as §1, §2

The subject of data set [7] is CC(=O)N[C@H]1[C@H]([C@H](O)[C@H](O)CO)O[C@](OP(=O)(O)OC[C@H]2O[C@@H](n3ccc(N)nc3=O)[C@H](O)[C@@H]2O)(C(=O)O)C[C@@H]1O. Described as above. Format: biochemical, Pasteurella multocida. The note with it: other: apparent, donor, Le^xβMU 1 mM, CAPSO pH 9.5, 37° C. As to the method: as §1, §2
Data set [8] shares this test system. Nature of the data set: CMP-Neu5Ac (donor) hydrolysis activity, capillary electrophoresis. Type of data set: biochemical, Pasteurella multocida. The note with it: other: apparent, Tris-HCl pH 8.5, 37° C., 15 min. As to the method: as §1
Kinetics of the donor hydrolysis activity of PmST1 and mutants by capillary electrophoresis analysis. […] The reactions were stopped by adding 10 μL of pre-chilled ethanol. The mixtures were incubated on ice for 30 min and centrifuged at 13,000 rpm for 5 min. The supernatants were diluted with borate buffer (25 mM, pH 9.5) and aliquotes of 5 μL each were injected to a Beckman Coulter P/ACE™ MDQ Capillary Electrophoresis system equipped with a capillary (60 cm×75 μm i.d.) and monitored at 254 nm. The apparent kinetic parameters were obtained by fitting the experimental data (the average values of duplicate assay results) into the Michaelis-Menten equation using Grafit 5.0.

The nature of data set [9]: Apparent kinetics of the α2-3-sialidase activity (HPLC, fluorescent sialoside substrate). Format: biochemical. The note with it: substrate Neu5Acα2-3LacβMU. As to the method:
All the sialidase and α2-3-sialyltransferase assays were performed in an HPLC system. Reactions were stopped by adding 10 μL of ethanol. […] The mobile phase was 25% acetonitrile.
Kinetics of the α2-3-sialidase activity of PmST1 mutants.

A short description of data set [10]: Thermal stability studies by HPLC. Type of data set: physicochemical. The note with it: incubating at 37° C. for up to 2 hours. As to the method: Stability studies by HPLC. Thermal stability studies were carried out by incubating wild-type PmST1 or E271F/R313Y mutant solution (20 μg mL^−1) at 37° C. Samples were withdrawn at various time intervals for enzyme activity assays.

Setting [11] is: donor hydrolysis, Tris-HCl pH 8.5, 37° C., 15 min.

For “Pasteurella multocida α2-3-sialyltransferase 1 (PmST1), wild type (WT), SEQ ID NO: 13 (Pasteurella multocida)”, in [1], the Michaelis constant (Km) is 17 ± 2 mM and the kcat was determined as 6.7 ± 0.3 s⁻¹. In data set [2] (setting [11]), the Km is recorded as 1.5 ± 0.2 mM, the kcat is 27 ± 1 s⁻¹ and the kcat/Km was 18000 M⁻¹ s⁻¹. Also, in [2] (donor, with Le^xβMU, 37.0 °C), the Km was 0.39 ± 0.03 mM and the kcat amounted to 0.55 ± 0.01 s⁻¹.

With “Pasteurella multocida PmST1 mutant M144D of SEQ ID NO: 13 (M120D of Δ24PmST1, SEQ ID NO: 3) (Pasteurella multocida; M144D)”, the Km in [3] (M144D, 60 min) came to 20 ± 2 mM; in [4] (M144D) it was 0.30 ± 0.05 mM; in [5] (M144D), 12 ± 1 mM; in data set [6] (M144D), 13 ± 2 mM; in data set [7] (M144D), 2.1 ± 0.1 mM; in data set [8] (M144D) it was 7.3 ± 0.5 mM.

For “Pasteurella multocida PmST1 mutant M144H of SEQ ID NO: 13 (M120H of Δ24PmST1, SEQ ID NO: 5) (Pasteurella multocida; M144H)”, the Km was 1.7 ± 0.3 mM in data set [3] (M144H, 15 min); 0.81 ± 0.06 mM in data set [4] (M144H); 0.79 ± 0.04 mM in data set [5] (M144H); 8.1 ± 0.9 mM in data set [6] (M144H); 0.4 ± 0.05 mM in data set [7] (M144H); 13 ± 3 mM in [8] (M144H).

B1: E271F/R313Y (protein, listed as Pasteurella multocida)
chain: MKNRRLNFKLFFLIIFSLFSTLSWSKTITLYLDPASLPALNQLMDFTQNNEDKTHPRIFGLSRFKIPDNIITQYQNIHFVELKDNRPTEALFTILDQYPGNIELNIHLNIAHSVQLIRPILAYRFKHLDRVSIQQLNLYDDGSMEYVDLEKEENKDISAEIKQAEKQLSHYLLTGKIKFDNPTIARYVWQSAFPVKYHFLSTDYFEKAEFLQPLKEYLAENYQKMDWTAYQQLTPEQQAFYLTLVGFNDEVKQSLEVQQAKFIFTGTTTWFGNTDVREYYAQQQLNLLNHFTQAEGDLFIGDHYKIYFKGHPYGGEINDYILNNAKNITNIPANISFEVLMMTGLLPDKVGGVASSLYFSLPKEKISHIIFTSNKQVKSKEDALNNPYVKVMRRLGIIDESQVIFWDSLKQL
modifications: PmST1 wild-type glycosyltransferase family 80 (GT80), GT80 sialyltransferase, Pm0188Ph
Turning to B1, in data set [9], the “decrease in sialidase kcat (turnover number) compared to wild-type PmST1” value is reported as 277 fold, the “decrease of α2-3-sialidase activity (catalytic efficiency kcat/Km) compared to wild-type PmST1” value is given as 6,333 fold and the “increase in sialidase Km value compared to wild-type PmST1” value turned out to be 22.5 fold. Moreover, the “thermal stability of α2-3-sialyltransferase activity (FIG. 3, in words)” value in data set [10] is on record as “did not decrease their activities significantly”.

The values are drawn from patent publication US9255257B2, “PmST1 mutants for chemoenzymatic synthesis of sialyl lewis X compounds” (THE REGENTS OF THE UNIVERSITY OF CALIFORNIA, priority 2011, dated 2016).
